Assay: soluble fraction after stress (log2 fold change); higher = more stays soluble; pooled small domains, quantitative proteomics
Settings: stress: 50 degC
Summary of the method: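 Pooled custom libraries of small protein domains were each held under stress at 50°C. The read-out, high-throughput quantitative proteomics, tracked how much of each protein stayed soluble. This is reported as a base-two log fold change used to indicate aggregation propensity. Higher values mean more protein remains in solution.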
In the case of “HMADWTETELAALRRAYASGTTRVSYDGKSVDYGSAEDLLSRIRTLQGAASDVAADAVAAVDA”, the “soluble fraction (log2)” value is reported as 0.0524. For “HMADYSMDDNAWNAKKADIDEWFEANPDFSANKAITDGLFSIGDSQVEMRKRYWASIAGVFAGLPNSPIG”, the “soluble fraction (log2)” value was -0.152. With “HMAEANTEADFVAIGVRAELLPILQKLGVHTIEQLKGIKATKLFNDIPGMRKKLKLDAVQNPTLQEIEGWL” the “soluble fraction (log2)” value was 0.00541. In the case of “HMAEAPGSVELLAERLRPWWEIHGGEWGSKTKALRFLFGDQAPVAGSYWRALEAAIAQIESTT”, the “soluble fraction (log2)” value is reported as -0.16. In the case of “HMAEKNALWEEDAVYAADSSALARDGYDAIVRTDKGGKKGYLVVGTGGRERFMPLQTLVMLGYLKK”, the “soluble fraction (log2)” value is reported as -0.065. In the case of “HMAEKRTAIITTARADIRQKPEATAPLAFEAVKDVVLELTDKPADGWVRVKHRDGSTGYIRINQI”, the “soluble fraction (log2)” value is reported as 0.0711. In the case of “HMAELAKAKLDAAVQVALLKAGALDTDYLAYKLQGMDGVALDDKGSLTGWDTTLETLKSQYPTQFA”, the “soluble fraction (log2)” value is reported as -0.302. In the case of “HMAEPTLNERLREALSDPAKLKIAKAIKAKYPIITARDIDTFLNMHEKDIENGADPMDEFEEFFHANY”, the “soluble fraction (log2)” value is reported as 0.127. With “HMAEPYDEDKVMEHLYIKGKDVVIAHLKHLKEHNEHVWLKKGVEWMQKNQDRLGFDMMEVIYVVHNH” the “soluble fraction (log2)” value was -0.0166. In the case of “HMAEQEELDAIRPDLDGQEIMDILGIKPGREVGAARNFLLELRLDEGPLGYDEAVSRLLTWWAERT”, the “soluble fraction (log2)” value is reported as -0.13. With “HMAETLLWADAAQEGLNRIVAAQPILVRISAAKRLRDASEQAAKAAGVSTVEIGHVQHASESLQFGDA” the “soluble fraction (log2)” value was 0.165. In the case of “HMAETLRLVGATNLNTLARARHPDDLAARNEFRRAIAQANPALFAGKSKVGSVSLPAGTVLALPPEV”, the “soluble fraction (log2)” value is reported as 0.184. With “HMAEVDDESIKLYDGGYQSNTTKSRLNALLSEFGYDTEHVFQKQFEWFISIFDLTEKAMRTVPFSNGMRL” the “soluble fraction (log2)” value was -0.0834. With “HMAEVGDFTLAELIKVLFNEAGVLKAPVELRNDNTGGLQYRVGAYTDSETGWETIASIADLKGA” the “soluble fraction (log2)” value was -0.436. For “HMAEWLLVQLTNGNWFYGEVIEKTDATIVLNTDILGKVSIQKLDIRRSISGPLTAAKRQEIEDSERAKD”, the “soluble fraction (log2)” value was -0.0179. For “HMAFDDAHYKDMITSYLKKFKKGNRSEIENLIIPKLSEVLVEKQKKDKVKNLLQALRKDNQIRLKGKYWYL”, the “soluble fraction (log2)” value was 0.135. With “HMAFIEADIGKRIKSLRNKKRITLESLAAETGFTKGYLSKVETSEKAPPVSTLGSIARALGVSISTLLGE” the “soluble fraction (log2)” value was -0.224. For “HMAFKDDDVQKAYDRYMDRYGELSVLYSDNGLKVDDDLFYKNNIPPNGKFTKEFFDELYELVNMEFINNY”, the “soluble fraction (log2)” value was -0.0827. In the case of “HMAFRLPNGYGTIRRLTGNRRKPYVALVNPTQVFDDEKGTSHYKYDLLGTFAEKIDAYNAVMQYHKSPGGL”, the “soluble fraction (log2)” value is reported as -1.35. In the case of “HMAGAPANLAARLREQILQGAYHDGQRLPAERHLAAEHGVSRGTVREALRLLEQGALLTRKRGSGSYVTYP”, the “soluble fraction (log2)” value is reported as -0.314. In the case of “HMAGDVVVEVVGKVRDPQVVTLPKGSRVQDALEAAGGVKPGVNTTDQNLARLLVDGEQIRIGLSS”, the “soluble fraction (log2)” value is reported as 0.0918. In the case of “HMAGFGDSLEKMSDAVEALKLLMSTEDARNDQNIQKIARELKDVFNKYRTHLRKSYPDQYDRIKSTL”, the “soluble fraction (log2)” value is reported as -0.299. In the case of “HMAGGNHPTRLELLDSAAHIAERDGTSALTVDAITKSAGHAKGTFYIHFDDRADLLVEMHRR”, the “soluble fraction (log2)” value is reported as -0.183. With “HMAGIPIHMSQLKQIILLLSQGYPIKGIARETGVSRNTIKGYLQTLTSQDLNVTDALKLENIQLEYLLRSP” the “soluble fraction (log2)” value was -1.65. In the case of “HMAGLYSLLLVELPMERLPEDLPAIKAAWLKTGDTEAFKVALQAMSSRGWTIAVPGKHRDTQMTQL”, the “soluble fraction (log2)” value is reported as 0.35. With “HMAGPVLTPEEAEVLRILADHGEMTVDNISAEGKMSAAVVLRGLGVLSAYGLVAPGGPGRWRSE” the “soluble fraction (log2)” value was -0.253. For “HMAGTDLSERESEIAMLLLKGYPYKLIASRLYISESTVKSHVQNIYGKLGIHSRTELIEQFSAS”, the “soluble fraction (log2)” value was -0.558. With “HMAGTPAIVKWFNPTKGFGFVTPKEAGSDALLHASVLAKRGKRWLQEGTLVEVLIEEGPKGLVVSELLTIE” the “soluble fraction (log2)” value was -0.748.

From the domain aggregation screens of Martell et al. (2025)
